Residue numbers refer to the chain shown, from its start.
B1: 44 (VHH)
VHH: QVQLVESGGGLVQAGGSLRLSCAASGFPVERKHMLWYRQSPGKEREWVAAIVSYGNYTTYADSVKGRFTISRDNAKNTVYLQMNSLKPEDTAVYYCNVKDHGFNTVLYDYWGQGTQVTVS
B2: 53 (VHH)
VHH: QVQLVESGGGLVQAGGSLRLSCAASGFPVYATVMHWYRQAPGKEREWVAAIYSTGMWTLYADSVKGRFTISRDNAKNTVYLQMNSLKPEDTAVYYCNVKDEGYDYYYYDYWGQGTQVTVS
B3: 46 (VHH)
VHH: QVQLVESGGGLVQAGGSLRLSCAASGFPVNYTIMFWYRKAPGKEREWVAAIKSHGATTLYADSVKGRFTISRDNAKNTVYLQMNSLKPEDTAVYYCNVKDVGNDQKSYDYWGQGTQVTVS
B4: 48 (VHH)
VHH: QVQLVESGGGLVQAGGSLRLSCAASGFPVAHWWMEWYRQAPGKEREWVAAIFSEGNWTHYADSVKGRFTISRDNAKNTVYLQMNSLKPEDTAVYYCNVKDTGATQFAYDYWGQGTQVTVS
B5: 49 (VHH)
VHH: QVQLVESGGGLVQAGGSLRLSCAASGFPVHYTHMHWYRQAPGKEREWVAAIASSGAYTVYADSVKGRFTISRDNAKNTVYLQMNSLKPEDTAVYYCNVKDWGTYNTYYDYWGQGTQVTVS
B6: 51 (VHH)
VHH: QVQLVESGGGLVQAGGSLRLSCAASGFPVKETWMHWYRQAPGKEREWVAAITSFGYKTYYADSVKGRFTISRDNAKNTVYLQMNSLKPEDTAVYYCNVKDAGDVTHQYDYWGQGTQVTVS
B7: 41 (VHH)
VHH: QVQLVESGGGLVQAGGSLRLSCAASGFPVEHQHMHWYRQAPGKEREWVAAIVSTGHYTIYADSVKGRFTISRDNAKNTVYLQMNSLKPEDTAVYYCNVKDWGDTSQYYDYWGQGTQVTVS
B8: 43 (VHH)
VHH: B5 VHH with H30E, Y31W, T103S, Y104Q, N105D, T106R
B9: 50 (VHH)
VHH: B7 VHH with E30Q, H31Y, Q32E, T54E, H56A, I59H, D103W, T104L, S105A
B10: 47 (VHH)
VHH: B5 VHH with H30V, Y31W, T32A, A52T, S54E, Y57H, V59I, N105S
B11: 40 (VHH)
VHH: QVQLVESGGGLVQAGGSLRLSCAASGFPVQGTWMEWYRQAPGKEREWVAAITSVGYRTYYADSVKGRFTISRDNAKNTVYLQMNSLKPEDTAVYYCNVKDEGAIAKNYDYWGQGTQVTVS
B12: 54 (VHH)
VHH: B11 VHH with Q30W, G31N, V54Y, Y56F, R57K, A103N, I104S, A105Q, K106S, N107H
B13: 45 (VHH)
VHH: B11 VHH with Q30A, V54Y, A103K, I104S, A105S, K106Q, N107V
B14: 52 (VHH)
VHH: B6 VHH with K30N, E31Y, T32N, H35E, F54W, A101E, D103M, V104W, T105Q, Q107Y

target: SARS-CoV-2 spike receptor-binding domain (2019-nCoV RBD-SD1, residues 319–566) (SARS-CoV-2, UniProt P0DTC2)

Binder | binding result
B1 | binds
B2 | binds
B3 | binds
B4 | binds
B5 | binds
B6 | binds
B7 | binds
B8 | binds
B9 | binds
B10 | binds
B11 | binds
B12 | binds
B13 | binds
B14 | binds

Source: publication PMC7642358 (Nature Communications, 2020)
